From article PMC8727931 come the findings set out here.

B1: His-tagged GABARAP [not stated] / GST-FAM134B [not stated] (parent)
chain 1: MKFVYKEEHPFEKRRSEGEKIRKKYPDRVPVIVEKAPKARIGDLDKKKYLVPSDLTVGQFYFLIRKRIHLRAEDALFFFVNNVIPPTSATMGQLYQEHHEEDFFLYIAYSDESVYGL
chain 2: EGDDFELLDQSELDQIESELGLTQDQ

The first experiment covers variants of B1. In words: competitive GST pull-down (gel band quantification). As to conditions: with GST-FAM134B; competition with MBP-LC3A H57D in the same reaction; n = 3; read off a plot.
Regarding chain 1 D54H, the ratio to parent stood at 1.05.

The experiment is the same for the next values; noted with them: with GST-FAM134B; competition with MBP-LC3A K65F in the same reaction; n = 3; read off a plot.
Consider chain 1 F62K, for which the ratio to parent is 1.05.

The experiment is the same for the next values; noted with them: with GST-FAM134B; competition with MBP-LC3A K30R in the same reaction; n = 3; read off a plot.
With chain 1 R28K, the ratio to parent worked out at 0.87.

The experiment is the same for the next values; noted with them: with GST-FAM134B; competition with MBP-LC3A H27Y in the same reaction; n = 3; read off a plot.
As for chain 1 Y25H, the ratio to parent was found to be 0.89.
